Reference: patent US20150246971A1 (RESEARCH DEVELOPMENT FOUNDATION, published 2015)

Tests used:
[1] = molecular target: T1, soluble human JAM-C-FLAG protein (human, UniProt Q9BX67 32-237); assay: SPR (Biacore 2000), JAM-C FLAG on a CM5 chip, response at the end of injection
T1 construct: Amine-coupled to a Biacore CM5 chip; also called immobilized JAM-C; human soluble JAM-C FLAG protein
T1 sequence: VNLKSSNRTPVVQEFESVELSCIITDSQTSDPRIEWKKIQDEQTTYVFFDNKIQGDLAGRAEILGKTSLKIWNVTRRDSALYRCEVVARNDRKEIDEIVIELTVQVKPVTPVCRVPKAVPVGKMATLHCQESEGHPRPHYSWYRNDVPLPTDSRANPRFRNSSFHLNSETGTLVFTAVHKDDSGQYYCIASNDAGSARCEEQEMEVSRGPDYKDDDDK
Protocol: (§1) To confirm the specificity of the JAM-C/JAM-B interaction at the molecular level, soluble human JAM-C-FLAG protein was covalently immobilized to a Biacore CM5 sensor chip Immobilization was assessed by testing the binding of anti-JAM-C monoclonal and polyclonal antibodies. […] Homotypic JAM-C/JAM-C interaction was never observed under these conditions, even when injecting higher concentrations of JAM-C Fc. […] To validate these findings for the model of human cells injected into mice, the inventors subsequently confirmed that human JAM-C binds to murine JAM-B to the same extent as to human JAM-B (FIG. 6B).
(§2) Interaction studies were performed on a Biacore 2000 (GE Healthcare). Recombinant proteins were immobilized at a concentration of 5 μg/mL on a CM5 sensor chip using the amine coupling kit (NHS-EDC) provided by the Biacore supplier. Background signal from a reference channel without soluble JAM-C was automatically subtracted. Proteins (30 μL) were injected (Kinject) in running buffer (400 μM Tris-HCl pH 7.4, containing 145 mM NaCl) at a flow rate of 20 μL/min.

[2] = molecular target: T2, human JAM-C (full-length, on cells) (human, UniProt Q9BX67 32-310); assay: adhesion of CFSE-labelled JAM-C-transfected Raji cells to coated Fc protein (human and murine JAM-B Fc coated)
T2 construct: whole, on cells; also called HuJAM-C; junctional adhesion molecule C
T2 sequence (looked up): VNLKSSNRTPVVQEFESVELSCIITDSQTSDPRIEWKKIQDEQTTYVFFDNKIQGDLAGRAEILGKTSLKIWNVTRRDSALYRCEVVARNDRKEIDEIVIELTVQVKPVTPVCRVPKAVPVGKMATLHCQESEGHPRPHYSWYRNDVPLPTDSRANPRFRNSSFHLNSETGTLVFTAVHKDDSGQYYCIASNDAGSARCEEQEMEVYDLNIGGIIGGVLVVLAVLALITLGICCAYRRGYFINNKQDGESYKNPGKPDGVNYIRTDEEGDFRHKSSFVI
Protocol: (§3) Although homotypic JAM-C/JAM-C and heterotypic JAM-C/JAM-B interactions have been reported, the endothelial ligand for JAM-C on B cells had not been described. To investigate this interaction, adhesion assays were performed. Culture plates were coated with recombinant human and murine JAM-B Fc, human JAM-C Fc, human VCAM-1 Fc as a positive control, and JAM-A Fc as a negative control. The JAM-Cneg B cell line Raji was transfected with the full-length human JAM-C cDNA and mock-transfected cells were used as a control (FIG. 5A). Whereas mock-transfected Raji cells adhered only to VCAM-1, JAM-C transfected Raji cells adhered to JAM-B and VCAM-1, but adhered neither to JAM-C nor to JAM-A (FIG. 5B-C). […]
(§4) For cell adhesion assays, NUNC 269787 adhesion plates were successively coated with anti-huFc antibody (Jackson Immuno Research) at 2.5 μg/mL, Fc-labeled proteins at 2.5 μg/mL, and blocked with 1% BSA (purified fraction V, Sigma). […] One hundred microliters of lysed cells were transferred into a 96-well plate (micro-clear plates black, Greiner), and fluorescence (πex 485 nm; πem 538 nm) was measured with a Flex Station Microplate reader (Molecular Devices). Data were expressed either in arbitrary units or as the ratio of the fluorescence measured on JAM-B Fc coated wells to the fluorescence measured on wells coated with Fc control protein.

[3] = molecular target: T1, soluble human JAM-C-FLAG protein; assay: SPR (Biacore 2000), JAM-C FLAG on a CM5 chip
Protocol: as §1, §2

[4] = molecular target: T2, human JAM-C (full-length, on cells); assay: adhesion of CFSE-labelled JAM-C-transfected Raji cells to coated Fc protein
Protocol: as §3, §4

B1: murine JAM-B FLAG (ligand, UniProt Q9JI59 29-236, looked up)
chain: FSASKDHRQEVTVIEFQEAILACKTPKKTTSSRLEWKKVGQGVSLVYYQQALQGDFKDRAEMIDFNIRIKNVTRSDAGEYRCEVSAPTEQGQNLQEDKVMLEVLVAPAVPACEVPTSVMTGSVVELRCQDKEGNPAPEYIWFKDGTSLLGNPKGGTHNNSSYTMNTKSGILQFNMISKMDSGEYYCEARNSVGHRRCPGKRMQVDVLN
notes: also called murine JAM-B FLAG protein; not shown: FLAG tag
Question: Does B1 bind [1]?
Answer: binds

B2: recombinant murine JAM-B Fc (Fc fusion, UniProt Q9JI59 29-236, looked up)
chain: FSASKDHRQEVTVIEFQEAILACKTPKKTTSSRLEWKKVGQGVSLVYYQQALQGDFKDRAEMIDFNIRIKNVTRSDAGEYRCEVSAPTEQGQNLQEDKVMLEVLVAPAVPACEVPTSVMTGSVVELRCQDKEGNPAPEYIWFKDGTSLLGNPKGGTHNNSSYTMNTKSGILQFNMISKMDSGEYYCEARNSVGHRRCPGKRMQVDVLN
notes: Coated on adhesion plates; also called mouse JAM-B; not shown: Fc tag (captured by anti-huFc antibody)
Question: Does B2 bind [2]?
Answer: binds

B3: recombinant human JAM-B Fc (Fc fusion)
chain: FSAPKDQQVVTAVEYQEAILACKTPKKTVSSRLEWKKLGRSVSFVYYQQTLQGDFKNRAEMIDFNIRIKNVTRSDAGKYRCEVSAPSEQGQNLEEDTVTLEVLVAPAVPSCEVPSSALSGTVVELRCQDKEGNPAPEYTWFKDGIRLLENPRLGSQSTNSSYTMNTKTGTLQFNTVSKLDTGEYSCEARNSVGYRRCPGKRMQVDDLNIS
notes: Bought (R&D); also called soluble JAM-B Fc; soluble human JAM-B Fc; not shown: Fc tag (detected with anti-human IgG1 Fc)
Question: Does B3 bind [3]?
Answer: binds

Question: Does B3 bind [4]?
Answer: binds

B4: human JAM-B FLAG (ligand)
chain: FSAPKDQQVVTAVEYQEAILACKTPKKTVSSRLEWKKLGRSVSFVYYQQTLQGDFKNRAEMIDFNIRIKNVTRSDAGKYRCEVSAPSEQGQNLEEDTVTLEVLVAPAVPSCEVPSSALSGTVVELRCQDKEGNPAPEYTWFKDGIRLLENPRLGSQSTNSSYTMNTKTGTLQFNTVSKLDTGEYSCEARNSVGYRRCPGKRMQVDDLNIS
notes: also called human JAM-B FLAG protein; not shown: FLAG tag
Question: Does B4 bind [3]?
Answer: binds
